Laboratory results from patent publication US20230190875A1 (ACCELERON PHARMA, published 2023).

T1: activin A (UniProt P08476 311-426)
T1 sequence (looked up): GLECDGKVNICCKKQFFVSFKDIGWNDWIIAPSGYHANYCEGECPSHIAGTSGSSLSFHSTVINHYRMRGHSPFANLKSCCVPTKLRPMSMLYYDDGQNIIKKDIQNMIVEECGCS

T2: activin B (UniProt P09529 293-407)
T2 sequence (looked up): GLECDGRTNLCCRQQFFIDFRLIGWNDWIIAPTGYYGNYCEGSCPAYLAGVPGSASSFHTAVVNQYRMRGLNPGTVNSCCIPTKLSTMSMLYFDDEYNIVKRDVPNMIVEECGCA

T3: BMP6 (UniProt P22004 382-513, limits assumed)
T3 sequence (looked up): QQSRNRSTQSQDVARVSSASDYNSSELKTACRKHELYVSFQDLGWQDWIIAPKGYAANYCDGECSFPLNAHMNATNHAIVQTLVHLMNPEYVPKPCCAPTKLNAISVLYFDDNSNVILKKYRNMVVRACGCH

B1: ActRIIB homodimer Fc fusion (Fc fusion, UniProt Q13705 20-134, looked up)
chain: GRGEAETRECIYYNANWELERTNQSGLERCEGEQDKRLHCYASWRNSSGTIELVKKGCWLDDFNCYDRQECVATEENPQVYFCCCEGNFCNERFTHLPEAGGPEVTYEPPPTAPT
notes: Comparator; also called homodimeric ActRIIB Fc fusion; homomeric ActRIIB-Fc; not shown: linker and Fc domain of the homodimer are not described
B2: BMP9 (ligand, UniProt Q9UK05 320-429, looked up)
chain: SAGAGSHCQKTSLRVNFEDIGWDSWIIAPKEYEAYECKGGCFFPLADDVTPTKHAIVQTLVHLKFPTKVGKACCVPTKLSPISVLYKDDMGVPTLKYHYEGMSVAECGCR
notes: also called GDF2
B3: BMP10 (ligand, UniProt O95393 317-424, looked up)
chain: NAKGNYCKRTPLYIDFKEIGWDSWIIAPPGYEAYECRGVCNYPLAEHLTPTKHAIIQALVHLKNSQKASKACCVPTKLEPISILYLDKGVVTYKFKYEGMAVSECGCR
B4: GDF3 (ligand, UniProt Q9NR23 251-364, looked up)
chain: AAIPVPKLSCKNLCHRHQLFINFRDLGWHKWIIAPKGFMANYCHGECPFSLTISLNSSNYAFMQALMHAVDPEIPQAVCIPTKLSPISMLYQDNNDNVILRHYEDMVVDECGCG
notes: also called VGR2
B5: GDF11 (ligand, UniProt O95390 299-407, looked up)
chain: NLGLDCDEHSSESRCCRYPLTVDFEAFGWDWIIAPKRYKANYCSGQCEYMFMQKYPHTHLVQQANPRGSAGPCCTPTKMSPINMLYFNDKQQIIYGKIPGMVVDRCGCS
notes: also called BMP11

Assays:
Test in all cases: SPR (Biacore); Fc fusion captured by anti-Fc antibody, ligand injected
activin A = biological target: T1, activin A
Experimental: (§1) A Biacore™-based binding assay was used to compare ligand binding selectivity of the single-arm ActRIIB heterodimer Fc fusion described above with that of ActRIIB homodimer Fc fusion. Single-arm ActRIIB […] Fc fusion and ActRIIB homodimer Fc fusion were independently captured onto the system using an anti-Fc antibody. Ligands were injected and allowed to flow over the captured receptor protein.

activin B = biological target: T2, activin B
Experimental: as §1

BMP6 = biological target: T3, BMP6
Experimental: as §1

[1] = biological target: B1
Experimental: as §1

[2] = biological target: T4, ActRIIA homodimer Fc fusion (UniProt P27037 21-135)
T4 construct: Comparator; also called homodimeric ActRIIA Fc fusion; not shown: linker and Fc domain of the homodimer are not described
Experimental: A Biacore™-based binding assay was used to compare ligand binding selectivity of the single-arm ActRIIA heterodimer Fc fusions described above with that of an ActRIIA homodimer Fc fusion. The single-arm ActRIIA heterodimer Fc fusions and ActRIIA homodimer Fc fusions were independently captured onto the system using an anti-Fc antibody. Ligands were injected and allowed to flow over the captured receptor protein.

T4 sequence (P27037 21-135): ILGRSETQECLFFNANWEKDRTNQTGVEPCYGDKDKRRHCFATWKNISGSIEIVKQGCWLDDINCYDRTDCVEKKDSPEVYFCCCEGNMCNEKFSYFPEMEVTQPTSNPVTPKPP

Row | Binder | Kd [1] [nM] | koff [1] [s⁻¹] | kon [1] [M⁻¹ s⁻¹] | Kd [2] [nM] | kon [2] [M⁻¹ s⁻¹] | other results
1 | B1 |  |  |  |  |  | Kd (activin A): 0.019 nM; koff (activin A): 0.00023 s⁻¹; kon (activin A): 1.2e+07 M⁻¹ s⁻¹; Kd (activin B): 0.02 nM; koff (activin B): 0.0001 s⁻¹; kon (activin B): 5.1e+06 M⁻¹ s⁻¹; Kd (BMP6): 0.21 nM; koff (BMP6): 0.0068 s⁻¹; kon (BMP6): 3.2e+07 M⁻¹ s⁻¹
2 | B2 | 0.078 | 0.0011 | 1.4e+07 |  |  | 
3 | B3 | 0.011 | 0.00026 | 2.3e+07 | 0.086 | 2.9e+07 | 
4 | B4 | 1.5 | 0.0022 | 1.4e+06 |  |  | 
5 | B5 | 0.002 | 0.00011 | 5e+07 | 0.028 | 2.6e+07 | koff [2]: 0.00072 s⁻¹
